Results on 4 molecules are retold here after patent US20230070752A1 (KOREA ADVANCED INSTITUTE OF SCIENCE AND TECHNOLOGY, published 2023).

Substitutions are numbered along the chain they refer to. Numbers in names are those of the source.

Assay [1] has as its target T1, IFNλR1 (UniProt Q8IU57 21-228, limits assumed).
T1 construct: Soluble protein used at 500, 1000 and 2000 nM in BLI; also called IFNLR1; interferon lambda receptor 1
T1 sequence (looked up): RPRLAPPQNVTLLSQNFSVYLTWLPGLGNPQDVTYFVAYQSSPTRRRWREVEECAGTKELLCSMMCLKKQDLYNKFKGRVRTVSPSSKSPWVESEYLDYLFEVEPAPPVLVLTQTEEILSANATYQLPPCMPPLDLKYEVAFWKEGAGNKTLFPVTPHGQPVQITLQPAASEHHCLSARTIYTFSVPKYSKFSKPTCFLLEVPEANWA
Briefly: BLI (BLItz), biotinylated eIFNλ4 immobilized on streptavidin biosensor, IFNλR1 as analyte (500, 1000, 2000 nM), 1:1 global fit; column head k dis. As to the method:
(§1) Sensorgrams were obtained from BLItz instrument. Data points are shown in grey and the corresponding fits are shown in red (IFNλR1) and blue (IL10Rβ). KD values were calculated from 1:1 global fitting.
(§2) The binding kinetics of the IFNλ4 variant to IFNλR1 and IL10Rβ were measured using biolayer light interferometry (BLI) in a BLItz system (ForteBio, Pall Life Sciences). The mixture was stirred in a washing buffer (200 mM NaCl, 20 mM Tris-HCl pH 8, 5% glycerol, 0.01% Tween-20) at 2,200 rpm. Analysis was performed at room temperature. 0.25 mg/ml of biotinylated IFNλ4 was loaded on the surface of the streptavidin biosensor (ForteBio) for 1 minute, and then the loaded biosensor was washed with a washing buffer (200 mM NaCl, 20 mM Tris-HCl pH 8, 5% glycerol, 0.01% Tween-20) for 2 minutes to remove unbound protein. The biosensor tip was immersed in drops containing the indicated concentrations of IFNλR1 and IL10Rβ (500, 1000 and 2000 nM). Associations (on rate, kon) were measured at intervals of 2 minutes. Subsequently, the sensor was immersed in the washing buffer for 2 minutes to measure dissociations (off-rate koff). KD measured in nanomoles was calculated as a ratio of […]. The resulting data was analyzed by fitting to a 1:1 ligand model using the entire global fitting function.

The target in assay [2] is T2, IL10Rβ (UniProt Q08334 20-220, limits assumed).
T2 construct: Soluble protein used at 500, 1000 and 2000 nM in BLI; also called IL10RB; interleukin-10 receptor beta
T2 sequence (looked up): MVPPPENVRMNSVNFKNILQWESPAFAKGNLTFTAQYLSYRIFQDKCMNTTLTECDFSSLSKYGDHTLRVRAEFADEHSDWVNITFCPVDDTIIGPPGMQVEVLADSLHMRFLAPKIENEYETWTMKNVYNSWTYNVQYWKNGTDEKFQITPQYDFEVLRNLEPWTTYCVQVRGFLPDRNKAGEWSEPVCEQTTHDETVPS
The assay can be described thus: BLI (BLItz), biotinylated IFNλ4 on streptavidin sensor, IL10Rβ in solution at 500-2000 nM, 1:1 global fit. As to the method: as §1, §2
(§3) To investigate whether the mutation and the additional glycan on IFNλ4 variants affect their binding to their receptors, IL10Rβ and IFNλR1, in-vitro binding affinity of the IFNλ4 variants to IL10Rβ and IFNλR1 was evaluated using biolayer light interferometry (BLI) and then compared with that of wild-type IFNλ4 (eIFNλ4) purified from E. coli. Similar to eIFNλ4, the three IFNλ4 variants appropriately bound to the receptor, and the binding affinity for IFNλR1 was higher than the binding affinity for IL10Rβ (FIG. 4).

Assay [3] has as its target T2, IL10Rβ. The assay can be described thus: BLI (BLItz), biotinylated eIFNλ4 immobilized on streptavidin biosensor, IL10Rβ as analyte (500, 1000, 2000 nM), 1:1 global fit. As to the method:
as §1, §2

Assay [4] addresses T2, IL10Rβ. Briefly: BLI (BLItz), biotinylated eIFNλ4 immobilized on streptavidin biosensor, IL10Rβ as analyte (500, 1000, 2000 nM), 1:1 global fit; column head k dis. The protocol:
as §1, §2

For assay [5], the target named is T1, IFNλR1. Briefly: BLI (BLItz), biotinylated IFNλ4 on streptavidin sensor, IFNλR1 in solution at 500-2000 nM, 1:1 global fit. As to the method:
as §1, §2, §3

Assay [6] concerns the target T1, IFNλR1. The assay can be described thus: BLI (BLItz), biotinylated eIFNλ4 immobilized on streptavidin biosensor, IFNλR1 as analyte (500, 1000, 2000 nM), 1:1 global fit. The protocol:
as §1, §2

In assay [7] the target is T1, IFNλR1. Briefly: BLI (BLItz), biotinylated IFNλ4 variant immobilized on streptavidin biosensor, IFNλR1 as analyte (500, 1000, 2000 nM), 1:1 global fit; column head k dis. As to the method: as §1, §2
The target of assay [8] is T1, IFNλR1. The assay can be described thus: BLI (BLItz), biotinylated IFNλ4 variant immobilized on streptavidin biosensor, IFNλR1 as analyte (500, 1000, 2000 nM), 1:1 global fit. As to the method:
as §1, §2

In assay [9] the target is T2, IL10Rβ. Briefly: BLI (BLItz), biotinylated IFNλ4 variant immobilized on streptavidin biosensor, IL10Rβ as analyte (500, 1000, 2000 nM), 1:1 global fit; column head k dis. As to the method:
as §1, §2

Assay [10] deals with T2, IL10Rβ. The assay can be described thus: BLI (BLItz), biotinylated IFNλ4 variant immobilized on streptavidin biosensor, IL10Rβ as analyte (500, 1000, 2000 nM), 1:1 global fit. The protocol:
as §1, §2

B1: eIFNλ4 (wild-type IFNλ4 produced in E. coli, R&D Systems 9165-IL) (ligand)
chain: MAPRRCLLSHYRSLEPRTLAAAKALRDRYEEEALSWGQRNCSFRPRRDPPRPSSCARLRHVARGIADAQAVLSGLHRSELLPGAGPILELLAAAGRDVAACLELARPGSSRKVPGAQKRRHKPRRADSPRCRKASVVFNLLRLLTWELRLAAHSGPCL
modifications: not glycosylated (E. coli); biotinylated for BLI
notes: Bought as protein and used as the wild-type control; also called eIFNL4; control wild-type IFNλ4
B1: the figures for the koff in the assay with IFNλR1 [1] and with IL10Rβ [4] were 0.000397 s⁻¹ and 0.00203 s⁻¹, respectively. Also, the Kd was 71 nM with IL10Rβ [2] and 19 nM with IFNλR1 [5]. Moreover, the on-rate (kon) was 28800 M⁻¹ s⁻¹ in the assay with IL10Rβ [3] and 21300 M⁻¹ s⁻¹ with IFNλR1 [6].

B2: M3 (P73N) IFNλ4 variant (ligand)
chain: B1 chain with M1A, P52N
modifications: N-glycans at Asn61 and at P73N (Asn73); biotinylated for BLI
notes: Secreted from Expi293F cells as a C-terminal Protein A fusion; Protein A was removed by thrombin at an LVPRGS site; Monomer by SDS-PAGE; also called P73N (M3)
Turning to B2, the koff is 0.000647 s⁻¹ with IFNλR1 [7] and 0.00148 s⁻¹ in the assay with IL10Rβ [9]. Also, the results for the kon with IFNλR1 [8] and with IL10Rβ [10] were 29200 M⁻¹ s⁻¹ and 29100 M⁻¹ s⁻¹, respectively. Further, the dissociation constant (Kd) with IL10Rβ [2] was 51 nM; with IFNλR1 [5] it was 22 nM.

B3: M1 (L28N) IFNλ4 variant (ligand)
chain: B1 chain with M1A, L7N
modifications: N-glycan at Asn61 (L28N not glycosylated); biotinylated for BLI
notes: Secreted from Expi293F cells as a C-terminal Protein A fusion; Protein A was removed by thrombin at an LVPRGS site; Monomer by SDS-PAGE; also called L28N (M1)
Consider B3, for which the off-rate (koff) in the assay with IFNλR1 [7] was 0.000686 s⁻¹; with IL10Rβ [9], 0.00104 s⁻¹. Moreover, the on-rate constant (kon) in the assay with IFNλR1 [8] came to 50200 M⁻¹ s⁻¹; with IL10Rβ [10], 21300 M⁻¹ s⁻¹. Besides, the equilibrium dissociation constant (Kd) with IL10Rβ [2] came to 49 nM; with IFNλR1 [5], 14 nM.

B4: M7 (L28N+P73N) IFNλ4 variant (ligand)
chain: B1 chain with M1A, L7N, P52N
modifications: N-glycans at Asn61 and at P73N (Asn73); L28N not glycosylated; biotinylated for BLI
notes: Secreted from Expi293F cells as a C-terminal Protein A fusion; Protein A was removed by thrombin at an LVPRGS site; Monomer by SDS-PAGE; also called double mutant
In the case of B4, the dissociation rate constant (koff) in the assay with IFNλR1 [7] was found to be 0.000967 s⁻¹; with IL10Rβ [9], 0.00129 s⁻¹. The figures for the kon with IFNλR1 [8] and with IL10Rβ [10] were 58300 M⁻¹ s⁻¹ and 26200 M⁻¹ s⁻¹, respectively. For the same molecule, the results for the dissociation constant (Kd) in the assay with IL10Rβ [2] and with IFNλR1 [5] were 49 nM and 17 nM, respectively.
